Measured values reported in patent publication US20230357429A1 (JANUX THERAPEUTICS, published 2023).
Like-named read-outs stand apart in the source and are kept apart here. Where no end group is shown, it is not given here.

B2: TCE-10 (anti-CD3 scFv R100A; anti-TROP2 wt) (bispecific antibody)
light: DIQLTQSPSSLSASVGDRVSITCKASQDVSIAVAWYQQKPGKAPKLLIYSASYRYTGVPDRFSGSGSGTDFTLTISSLQPEDFAVYYCQQHYITPLTFGAGTKVEIKRTVAAPSVFIFPPSDEQLKSGTASVVCLLNNFYPREAKVQWKVDNALQSGNSQESVTEQDSKDSTYSLSSTLTLSKADYEKHKVYACEVTHQGLSSPVTKSFNRGEC
heavy: not shown
notes: scFv on the Fab heavy chain; also called TCE-10 (R100A)
B4: TCE-22 (anti-CD3 scFv W112A; anti-TROP2 wt) (bispecific antibody)
light: DIQLTQSPSSLSASVGDRVSITCKASQDVSIAVAWYQQKPGKAPKLLIYSASYRYTGVPDRFSGSGSGTDFTLTISSLQPEDFAVYYCQQHYITPLTFGAGTKVEIKRTVAAPSVFIFPPSDEQLKSGTASVVCLLNNFYPREAKVQWKVDNALQSGNSQESVTEQDSKDSTYSLSSTLTLSKADYEKHKVYACEVTHQGLSSPVTKSFNRGEC
heavy: not shown
notes: scFv on the Fab heavy chain; also called TCE-22 (W112A)
B6: TCE-31 (anti-CD3 scFv W238A; anti-TROP2 wt) (bispecific antibody)
light: DIQLTQSPSSLSASVGDRVSITCKASQDVSIAVAWYQQKPGKAPKLLIYSASYRYTGVPDRFSGSGSGTDFTLTISSLQPEDFAVYYCQQHYITPLTFGAGTKVEIKRTVAAPSVFIFPPSDEQLKSGTASVVCLLNNFYPREAKVQWKVDNALQSGNSQESVTEQDSKDSTYSLSSTLTLSKADYEKHKVYACEVTHQGLSSPVTKSFNRGEC
heavy: not shown
notes: scFv on the Fab heavy chain; also called TCE-31 (W238A)
B7: Peptide-70 (peptide)
peptide: YLCGPDGDETLACY
modifications: cysteine pairing not given here; also: biotinylated, site not given here
notes: mask peptide for the CD3 scFv

Legend:
Cyno TROP2 Full length = target: T1, Cyno TROP2 Full length (cynomolgus monkey, UniProt P09758 31-323 (human entry)); assay: cell-based or functional assay
T1 chain: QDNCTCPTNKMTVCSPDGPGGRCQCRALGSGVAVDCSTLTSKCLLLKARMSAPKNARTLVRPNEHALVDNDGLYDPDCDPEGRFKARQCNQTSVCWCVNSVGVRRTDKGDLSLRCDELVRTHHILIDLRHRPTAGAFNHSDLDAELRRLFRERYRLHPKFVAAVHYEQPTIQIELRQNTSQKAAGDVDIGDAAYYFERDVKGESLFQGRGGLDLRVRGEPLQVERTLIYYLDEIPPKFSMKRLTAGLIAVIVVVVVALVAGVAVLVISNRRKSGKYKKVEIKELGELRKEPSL

Human TROP2 Full length = target: T2, Human TROP2 Full length (human, UniProt P09758 31-323); assay: cell-based or functional assay
T2 sequence: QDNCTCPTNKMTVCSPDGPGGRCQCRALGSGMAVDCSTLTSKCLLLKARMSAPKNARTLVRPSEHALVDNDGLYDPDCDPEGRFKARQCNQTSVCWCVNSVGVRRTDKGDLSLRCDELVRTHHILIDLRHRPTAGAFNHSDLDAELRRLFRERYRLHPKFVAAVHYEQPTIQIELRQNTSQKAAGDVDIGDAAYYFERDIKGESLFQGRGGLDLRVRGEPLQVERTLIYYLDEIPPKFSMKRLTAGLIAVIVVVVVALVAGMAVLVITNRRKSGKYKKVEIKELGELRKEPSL

[1] = target: T3, CD3 (biotinylated CD3 antigen) (human, UniProt P07766 23-126, limits assumed, biotinylated (site not stated)); assay: ELISA, TCE on captured biotin-CD3
T3 construct: also called CD3ε; human CD3

Peptide-68 [2] = target: T4, Peptide-68 (cysteine pairing not given here; also: biotinylated, site not given here); assay: ELISA, TCE on captured biotin-peptide
T4 construct: mask peptide for the CD3 scFv
T4 peptide: DWCWYSPDNDGLCD

Peptide-75 [3] = target: T5, Peptide-75 (cysteine pairing not given here; also: biotinylated, site not given here); assay: ELISA, TCE on captured biotin-peptide
T5 construct: mask peptide for the CD3 scFv
T5 peptide: GSACLGPEWEVCPY

Peptide-67 [4] = target: T6, Peptide-67 (cysteine pairing not given here; also: biotinylated, site not given here); assay: ELISA, TCE on captured biotin-peptide
T6 construct: mask peptide for the CD3 scFv
T6 peptide: VYCGPEFDESVGCM

Peptide-74 [5] = target: T7, Peptide-74 (cysteine pairing not given here; also: biotinylated, site not given here); assay: ELISA, TCE on captured biotin-peptide
T7 construct: mask peptide for the CD3 scFv
T7 peptide: ASQCLGPEWEVCPY

Peptide-72 [6] = target: T8, Peptide-72 (cysteine pairing not given here; also: biotinylated, site not given here); assay: ELISA, TCE on captured biotin-peptide
T8 construct: mask peptide for the CD3 scFv
T8 peptide: AYCGPEFDESVGCM

Peptide-65 [7] = target: T9, Peptide-65 (cysteine pairing not given here; also: biotinylated, site not given here); assay: ELISA, TCE on captured biotin-peptide
T9 construct: mask peptide for the CD3 scFv
T9 peptide: QGCGTIADPEPHCW

Peptide-71 [8] = target: T10, Peptide-71 (cysteine pairing not given here; also: biotinylated, site not given here); assay: ELISA, TCE on captured biotin-peptide
T10 construct: mask peptide for the CD3 scFv
T10 peptide: VDCGPDGDESILCY

Peptide-69 [9] = target: T11, Peptide-69 (cysteine pairing not given here; also: biotinylated, site not given here); assay: ELISA, TCE on captured biotin-peptide
T11 construct: mask peptide for the CD3 scFv
T11 peptide: SECLVDLQSDPCYW

Peptide-66 [10] = target: T12, Peptide-66 (cysteine pairing not given here; also: biotinylated, site not given here); assay: ELISA, TCE on captured biotin-peptide
T12 construct: mask peptide for the CD3 scFv
T12 peptide: GSQCLGPEWEVCPY

[11] = target: T3, CD3 (biotinylated CD3 antigen); assay: ELISA, TCE on captured biotin-CD3; remark: listed apart in the source
Peptide-68 [12] = target: T4, Peptide-68; assay: ELISA, TCE on captured biotin-peptide
Peptide-75 [13] = target: T5, Peptide-75; assay: ELISA, TCE on captured biotin-peptide
Peptide-67 [14] = target: T6, Peptide-67; assay: ELISA, TCE on captured biotin-peptide
Peptide-70 = target: B7; assay: ELISA, TCE on captured biotin-peptide
Peptide-74 [15] = target: T7, Peptide-74; assay: ELISA, TCE on captured biotin-peptide
Peptide-72 [16] = target: T8, Peptide-72; assay: ELISA, TCE on captured biotin-peptide
Peptide-65 [17] = target: T9, Peptide-65; assay: ELISA, TCE on captured biotin-peptide
Peptide-71 [18] = target: T10, Peptide-71; assay: ELISA, TCE on captured biotin-peptide
Peptide-69 [19] = target: T11, Peptide-69; assay: ELISA, TCE on captured biotin-peptide
Peptide-66 [20] = target: T12, Peptide-66; assay: ELISA, TCE on captured biotin-peptide
Peptide-73 [21] = target: T13, Peptide-73 (cysteine pairing not given here; also: biotinylated, site not given here); assay: ELISA, TCE on captured biotin-peptide
T13 construct: mask peptide for the CD3 scFv
T13 peptide: VYCGPEFDESVGCA

Peptide-73 [22] = target: T13, Peptide-73; assay: ELISA, TCE on captured biotin-peptide
[23] = target: T3, CD3 (biotinylated CD3 antigen); assay: ELISA: biotinylated CD3 captured on neutravidin plates, TCE titrated, HRP secondary antibody
[24] = target: B4; assay: competition ELISA, TCE on captured CD3
[25] = target: T14, TCE-26 (anti-CD3 scFv W233A; anti-TROP2 HC wt); assay: competition ELISA, TCE on captured CD3
T14 construct: scFv on the Fab heavy chain; also called TCE-26 (W233A)

[26] = target: B6; assay: competition ELISA, TCE on captured CD3
[27] = target: B2; assay: competition ELISA, TCE on captured CD3
[28] = target: T15, TCE-14 (anti-CD3 scFv F104A; anti-TROP2 wt); assay: competition ELISA, TCE on captured CD3
T15 construct: scFv on the Fab heavy chain; also called TCE-14 (F104A)

[29] = target: T16, TCE-13 (anti-CD3 scFv N103A; anti-TROP2 wt); assay: competition ELISA, TCE on captured CD3
T16 construct: scFv on the Fab heavy chain; also called TCE-13 (N103A)

[30] = target: T17, TCE-20 (anti-CD3 scFv S110A; anti-TROP2 wt); assay: competition ELISA, TCE on captured CD3
T17 construct: scFv on the Fab heavy chain; also called TCE-20 (S110A)

[31] = target: T18, TCE-36 (anti-CD3 scFv H101A; anti-TROP2 F108A); assay: competition ELISA, TCE on captured CD3
T18 construct: scFv on the Fab heavy chain

[32] = target: T19, TCE-38 (anti-CD3 scFv F240A; anti-TROP2 F108A); assay: competition ELISA, TCE on captured CD3
T19 construct: scFv on the Fab heavy chain

[33] = target: T20, TCE-1 (anti-CD3 scFv wt; anti-TROP2 Fab wt); assay: competition ELISA: peptide titrated and pre-incubated with a constant concentration of TCE-1, binding of TCE-1 to plate-bound biotinylated CD3 detected
T20 construct: anti-CD3 scFv fused to the N-terminus of the anti-TROP2 Fab heavy chain; also called TCE-1 (wt)

B1: TCE-8 (bispecific antibody)
light: DIQLTQSPSSLSASVGDRVSITCKASQDVSIAVAWYQQKPGKAPKLLIYSASYRYTGVPDRFSGSGSGTDFTLTISSLQPEDFAVYYCQQHYITPLTFGAGTKVEIKRTVAAPSVFIFPPSDEQLKSGTASVVCLLNNFYPREAKVQWKVDNALQSGNSQESVTEQDSKDSTYSLSSTLTLSKADYEKHKVYACEVTHQGLSSPVTKSFNRGEC
heavy: not shown
Cyno TROP2 Full length
  CyTROP2 HEK293 EC50 (pM): 0.1 pM
Human TROP2 Full length
  HCT116 Cytotoxicity EC50 (pM): 83 pM

## B2
[1]
  EC50: 0.35 nM
Peptide-68 [2]
  EC50: 1.78 nM
Peptide-75 [3]
  EC50: 0.76 nM
Peptide-67 [4]
  EC50: 1.76 nM
Peptide-74 [5]
  EC50: 0.68 nM
Peptide-72 [6]
  EC50: 1.85 nM
Peptide-65 [7]
  EC50: 473 nM
Peptide-71 [8]
  EC50: 0.63 nM
Peptide-69 [9]
  EC50: 8.73 nM
Peptide-66 [10]
  EC50: 0.58 nM

B3: TCE-21 (anti-CD3 scFv Y111A; anti-TROP2 wt) (bispecific antibody)
light: DIQLTQSPSSLSASVGDRVSITCKASQDVSIAVAWYQQKPGKAPKLLIYSASYRYTGVPDRFSGSGSGTDFTLTISSLQPEDFAVYYCQQHYITPLTFGAGTKVEIKRTVAAPSVFIFPPSDEQLKSGTASVVCLLNNFYPREAKVQWKVDNALQSGNSQESVTEQDSKDSTYSLSSTLTLSKADYEKHKVYACEVTHQGLSSPVTKSFNRGEC
heavy: not shown
notes: scFv on the Fab heavy chain; also called TCE-21 (Y111A)
[11]
  EC50: 592 nM
Peptide-68 [12]
  EC50: 381 nM
Peptide-75 [13]
  EC50: 95.6 nM
Peptide-67 [14]
  EC50: 77.7 nM
Peptide-70
  EC50: 11.9 nM
Peptide-74 [15]
  EC50: 64.2 nM
Peptide-72 [16]
  EC50: 76.9 nM
Peptide-65 [17]
  EC50: 1080 nM
Peptide-71 [18]
  EC50: 106 nM
Peptide-69 [19]
  EC50: 572 nM
Peptide-66 [20]
  EC50: 49.1 nM

## B4
[11]
  EC50: 0.95 nM
Peptide-68 [12]
  EC50: 794 nM
Peptide-75 [13]
  EC50: 38.2 nM
Peptide-67 [14]
  EC50: 10.5 nM
Peptide-70
  EC50: 0.59 nM
Peptide-74 [15]
  EC50: 23.4 nM
Peptide-72 [16]
  EC50: 11.2 nM
Peptide-73 [21]
  EC50: 12.2 nM
Peptide-65 [17]
  EC50: 220 nM
Peptide-71 [18]
  EC50: 4.87 nM
Peptide-66 [20]
  EC50: 26.4 nM

B5: TCE-27 (anti-CD3 scFv Y234A; anti-TROP2 wt) (bispecific antibody)
light: DIQLTQSPSSLSASVGDRVSITCKASQDVSIAVAWYQQKPGKAPKLLIYSASYRYTGVPDRFSGSGSGTDFTLTISSLQPEDFAVYYCQQHYITPLTFGAGTKVEIKRTVAAPSVFIFPPSDEQLKSGTASVVCLLNNFYPREAKVQWKVDNALQSGNSQESVTEQDSKDSTYSLSSTLTLSKADYEKHKVYACEVTHQGLSSPVTKSFNRGEC
heavy: not shown
notes: scFv on the Fab heavy chain
Peptide-73 [22]
  EC50: 0.35 nM

## B6
[11]
  EC50: 24 nM
[23]
  EC50: 8.65 nM
Peptide-68 [12]
  EC50: 2.29 nM
Peptide-75 [13]
  EC50: 7.08 nM
Peptide-67 [14]
  EC50: 5.96 nM
Peptide-70
  EC50: 8 nM
Peptide-74 [15]
  EC50: 5.33 nM
Peptide-72 [16]
  EC50: 5.66 nM
Peptide-71 [18]
  EC50: 112 nM
Peptide-69 [19]
  EC50: 0.29 nM
Peptide-66 [20]
  EC50: 6.34 nM
Peptide-73 [22]
  EC50: 7.03 nM

## B7
[24]
  IC50: 470 nM
[25]
  IC50: 5000 nM
[26]
  IC50: 43500 nM
[27]
  IC50: 240 nM
[28]
  IC50: 180 nM
[29]
  IC50: 2110 nM
[30]
  IC50: 370 nM
[31]
  IC50: 80 nM
[32]
  IC50: 140 nM
[33]
  IC50 (read off the curve): ~10 nM
